From paper PMC6650547 (mBio, 2019) come the findings set out here.

This assay concerns the target T1, His-SUDV-NP(34-367) (Sudan virus (SUDV), strain Boniface, UniProt Q9QP77 34-367).
T1 sequence: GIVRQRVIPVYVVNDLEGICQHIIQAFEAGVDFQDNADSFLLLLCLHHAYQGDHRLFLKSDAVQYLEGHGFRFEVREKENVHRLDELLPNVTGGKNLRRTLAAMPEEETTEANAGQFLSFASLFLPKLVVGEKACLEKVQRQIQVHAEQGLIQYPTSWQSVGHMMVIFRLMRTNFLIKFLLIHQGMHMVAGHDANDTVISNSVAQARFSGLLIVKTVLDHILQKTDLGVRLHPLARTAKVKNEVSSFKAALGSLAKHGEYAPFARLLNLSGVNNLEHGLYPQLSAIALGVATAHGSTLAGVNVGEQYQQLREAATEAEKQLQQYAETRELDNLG
As to the kind of experiment: BLI; […] ([…]), 60 s association, 60 s dissociation; […]; Octet Red. As to conditions: both partners purified. Background: In BLI a coated tip is dipped into the sample, and binding shifts an interference pattern.

B1: SUDV VP35 wild-type chaperone domain peptide (residues 1 to 34) (peptide)
peptide: MQQDRTYRHHGPEVSGWFSEQLMTGKIPLTEVFV
As a reminder, the Kd is the equilibrium constant for the complex coming apart. The low end stands for tighter binding, the high end for weaker binding. B1 came in with a Kd of roughly 3.86 nM.
